From patent US20110287011A1 (ONCOMED PHARMACEUTICALS, published 2011)

Assays:
Test in all cases: FACS on HEK293 cells transfected with the DDR1 variant
[1] = molecular target: FLAG-tagged human DDR1 S175A variant (human, UniProt Q08345 19-913)
Description: (§1) Full length cDNA encoding FLAG-tagged human DDR1 variants were transiently transfected into HEK293 cells using standard procedures as known to one skilled in the art. To determine the capacity of antibodies to bind the DDR1 variants, antibodies were incubated with HEK293 cells transfected with plasmid encoding either wild type DDR1 or one of the point mutation variants. All cells were co-transfected with plasmid encoding GFP. The cells were analyzed by FACS as described herein for binding of the antibodies to wild type DDR1 and to DDR1 variants.

[2] = molecular target: FLAG-tagged human DDR1 D68A variant (human, UniProt Q08345 19-913)
Description: as §1

[3] = molecular target: FLAG-tagged human DDR1 R105A variant (human, UniProt Q08345 19-913)
Description: as §1

[4] = molecular target: FLAG-tagged human DDR1 L110A variant (human, UniProt Q08345 19-913)
Description: as §1

[5] = molecular target: FLAG-tagged human DDR1 E113Q variant (human, UniProt Q08345 19-913)
Description: as §1

Chain of FLAG-tagged human DDR1 S175A variant (Q08345 other isoform, or with tags, fused parts or gaps S175A S175A limits assumed): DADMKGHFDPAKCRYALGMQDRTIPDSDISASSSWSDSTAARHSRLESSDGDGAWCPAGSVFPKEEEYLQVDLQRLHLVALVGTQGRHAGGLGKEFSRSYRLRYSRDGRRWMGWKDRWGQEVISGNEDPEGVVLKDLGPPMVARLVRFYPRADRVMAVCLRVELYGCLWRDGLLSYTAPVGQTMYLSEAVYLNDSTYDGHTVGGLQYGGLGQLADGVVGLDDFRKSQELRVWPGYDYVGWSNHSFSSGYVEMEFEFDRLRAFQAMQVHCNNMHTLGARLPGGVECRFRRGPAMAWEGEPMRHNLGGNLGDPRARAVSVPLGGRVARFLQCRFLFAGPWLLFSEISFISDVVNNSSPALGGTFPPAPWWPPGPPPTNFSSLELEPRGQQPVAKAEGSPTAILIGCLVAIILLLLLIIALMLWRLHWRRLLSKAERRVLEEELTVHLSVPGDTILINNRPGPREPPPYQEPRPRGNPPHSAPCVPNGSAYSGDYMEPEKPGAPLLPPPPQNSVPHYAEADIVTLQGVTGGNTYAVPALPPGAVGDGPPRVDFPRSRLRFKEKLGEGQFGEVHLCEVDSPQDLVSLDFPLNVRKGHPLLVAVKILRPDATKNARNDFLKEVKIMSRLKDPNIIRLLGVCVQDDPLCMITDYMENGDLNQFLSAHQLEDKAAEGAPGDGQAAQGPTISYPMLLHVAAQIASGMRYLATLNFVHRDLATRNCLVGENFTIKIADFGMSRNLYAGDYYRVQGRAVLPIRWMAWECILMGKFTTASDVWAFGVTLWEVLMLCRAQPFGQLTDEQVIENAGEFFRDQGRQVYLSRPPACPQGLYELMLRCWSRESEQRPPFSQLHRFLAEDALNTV
Chain of FLAG-tagged human DDR1 R105A variant (Q08345 other isoform, or with tags, fused parts or gaps R105A R105A limits assumed): as the sequence (Q08345 other isoform, or with tags, fused parts or gaps S175A S175A limits assumed) above, with R87A, A157S counted along it
Chain of FLAG-tagged human DDR1 D68A variant (Q08345 other isoform, or with tags, fused parts or gaps D68A D68A limits assumed): as the sequence (Q08345 other isoform, or with tags, fused parts or gaps S175A S175A limits assumed) above, with D50A, A157S counted along it
Chain of FLAG-tagged human DDR1 L110A variant (Q08345 other isoform, or with tags, fused parts or gaps L110A L110A limits assumed): as the sequence (Q08345 other isoform, or with tags, fused parts or gaps S175A S175A limits assumed) above, with L92A, A157S counted along it
Chain of FLAG-tagged human DDR1 E113Q variant (Q08345 other isoform, or with tags, fused parts or gaps E113Q E113Q limits assumed): as the sequence (Q08345 other isoform, or with tags, fused parts or gaps S175A S175A limits assumed) above, with E95Q, A157S counted along it

binding result [1]: binds
binding result [2]: binds
binding result [3]: binds
binding result [4]: binds
binding result [5]: binds
B1: antibody 20M102 (antibody, mouse IgG1, kappa, V domains shown)
VH: EVQLQQSGSELVKPGASVKMSCKASGYTFTDYFMKWVKQSHGKSLEWIGDINPNNGDTFYIQKFKGKATLTVDKSSSTAYMQLNSLTSEDSAVYYCSRDLAYWGQGTLVAVSS
VL: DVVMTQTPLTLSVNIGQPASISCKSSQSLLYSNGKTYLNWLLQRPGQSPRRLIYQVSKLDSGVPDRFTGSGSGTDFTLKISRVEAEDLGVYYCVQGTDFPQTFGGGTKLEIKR
notes: Mouse monoclonal IgG purified from hybridoma supernatant; also called anti-DDR1 antibody 20M102; hybridoma ATCC PTA-10051
